We go through 17 sequences from the DeepSol protein solubility set.

The nature of this data set: soluble on expression in E. coli; label from the status in PepcDB or PDB records.
For “MGSDKIHHHHHHMKVVKFGGSSLASSQQLYKVLNIIKSDYTRRFVVVSAPGKRYEEDLKMTDALIQYYQNYINGKDIVKDQTWIINRYQEIISDLSLGSTIAEEITRSIEQLASLPIENNQFLYDCFLAAGEDNNAKLVATFFNQNDIPARYVHPNEAGIIVTKEPCNARIIPGSYDKIENLCLYNEVLVIPGFFGVTEDNQICTFSRGGSDITGSLIAAGIKADLYENFTDVDGIFAAHPGVVKNPHAIPELTYKEMRELAYAGFSVLHDEALLPAYRGRIPLVIKNTNNPQQPGTKIVLKHTRSNIAVTGIASDSRFASINVSKYLMNREVGFGRKVLQILEDLNISFEHMPTGIDDLSIVLREKELTPIKEQEILNYLTRKLEVDYVDIQHNLSTIVIVGENMKSQIGVTATATQALSREKINITMISQGSSEVSIMFVINSKDEKRAIKALYETFFQK”, the “soluble on expression in E. coli” value is on record as “not soluble”.

Take “MGSDKIHHHHHHMKYKIHWLYKTKRGLQTDLTTDYMNIEEVLQFAEDFEKTGRVKELLFYDEMDAEWSLKEMKKLSKQVEDEPQEILVYFDGGYDVQTKEAGVGICVYYKKGNKNYRIRRNAYIEGIYDNNEAEYASLLYSMNILEELGIKYEAVTLRGDSQVVLQQLAGEWPCYDEHLNHYLDQIEQKAKQMKLKLVCEPISRKQNKEAHQLATQALEGTVIDSHKEITE”: the “soluble on expression in E. coli” value is “not soluble”.

For “MGSDKIHHHHHHMLAYGYQKFGGPTVFEELPQSQLIPTDNQLLIKTLAVNLTEEDRLERLGTIQSVALPHIPGHDVIGKIIQVGAAVTDLDVGTVVAARTNHTYADQVCLDSDLAVTMPTNLDPVTAVSLVTPGIVAYKTVRYFADIQADQTVIVKGAGSPVGLLIIQLAKRLGAHVIAIASDRYANLIATLGVDQFVDYQHQNPVHVLADRGDVVINVAIDGVGGKDDLAMAKFDATIASFARHLPATSKSIRFQAIQPTEVISDQAALQLLFKLLDTGQLTTTINEQLPFNLTGFIQGHQRLDEPHVGQVVVAR”, the “soluble on expression in E. coli” value is “not soluble”.

Turning to “MGSDKIHHHHHHMLCSVIQRQTREVSNTMSLDSYYLGFDLSTQQLKCLAINQDLKIVHSETVEFEKDLPHYHTKKGVYIHGDTIECPVAMWLEALDLVLSKYREAKFPLNKVMAVSGSCQQHGSVYWSSQAESLLEQLNKKPEKDLLHYVSSVAFARQTAPNWQDHSTAKQCQEFEECIGGPEKMAQLTGSRAHFRFTGPQILKIAQLEPEAYEKTKTISLVSNFLTSILVGHLVELEEADACGMNLYDIRERKFSDELLHLIDSSSKDKTIRQKLMRAPMKNLIAGTICKYFIEKYGFNTNCKVSPMTGDNLATICSLPLRKNDVLVSLGTSTTVLLVTDKYHPSPNYHLFIHPTLPNHYMGMICYCNGSLARERIRDELNKERENNYEKTNDWTLFNQAVLDDSESSENELGVYFPLGEIVPSVKAINKRVIFNPKTGMIEREVAKFKDKRHDAKNIVESQALSCRVRISPLLSDSNASSQQRLNEDTIVKFDYDESPLRDYLNKRPERTFFVGGASKNDAIVKKFAQVIGATKGNFRLETPNSCALGGCYKAMWSLLYDSNKIAVPFDKFLNDNFPWHVMESISDVDNENWDRYNSKIVPLSELEKTLI”, the “soluble on expression in E. coli” value is “not soluble”.

Consider “MGSDKIHHHHHHMLDDIKKTLWATADKQRANMDAAEYKHIVLGLIFLKYISDTFAGRRAELTRRFADENDEYFLRECDDELLAEELEDRDYYREVNVFWVPETARWESLRSAAKQTDIGKRIDEALAEIEAENPKLKGILDKRYARSQLPDGKLGELVDLISTIGFGEDASHARDVLGQVYEYFLGQFASAEGKKGGQFYTPASIVKTLVAVLAPHHGKVYDPCCGSGGMFVQSEKFIEAHGGKLGDVSIYGQESNPTTWRLAAMNLAIRGIDYNLGREPADTFVRNQHPDLRADFVLANPPFNVSDWWHGSLEGDPRWVYGTPPQGNANYAWLQHMLYHLKPNGRAGIVLANGSMSSSQNSEGDIRRAMVDADVVEVMVALPGQLFFNTQIPACLWFLAKQKTTRKGEVLFIDARKLGSMISRVQTELTDEIIERIANTVAAWRGEAIDGVGEYADVPGYCRSVKLAEIAEHGHVLTPGRYVGAEKVEDDDEAFVEKMQKLTEMLGEQMAKGAELDQLIRQKLGGMGYEF”, for which the “soluble on expression in E. coli” value is “not soluble”.

For the sequence “MGSDKIHHHHHHMLDKKTDILLAARKLFSEKDFTSVSMQAIAEECKMSKASIYKLFQSKEDLLLELLSFNQKQMVAAASRLQENTALTPEERLTQKVKMELEGFRRNQQFFNMLTYGNPRLHNDRVKQHIHQTRSTIICWHRDSLIQAYGETILPFVWDLVIILHGMMREFLMLIKIEEKPLELDPIAEFIISTLNQIIKNRETRQSLLPPEAIELYIHSASSYKPKDKSVLLSESLKELHKGISSLSAADYDVDELTSAAAMLEEEAKKEEPRAFLLKSLIGYLEQTGVLTQPVSMLKTLLIT”, the “soluble on expression in E. coli” value is “not soluble”.

For “MGSDKIHHHHHHMLDNRIIDELKTIVGADNVATDRQDLICYGYDATQMEFLPDAVVHPGSPDEVSAVLKLANREQFPVYPRGAGSGFTGGALPKGGGIVLVVTRLNRILRIDTENLIAEVEPGVVTEQFQLEVEKLGLFYPPDPASLKFSTLGGNVAENAGGPRCVKYGVTRDFVMGLEVVLPSGEIIRTGGETYKGVVGYDLTRLLCGSEGTLGVITKIIFKLLPLPEAKKTMMTIFDSIDGAAKAVSTIIGNKIIPTTLEFMDHATLQCVEKRFNLGIPASGRAVLIIEVDGDRDLIEKQAARIQELIKPLGLVECKIAKDAAESEALWKVRRLVSPSLRDVNPDKFNEDIVVPRSKVPDVIRVIEKIQQKYAIPIVNFGHAGDGNIHVNIMIDKSVAGQEEKAHEAIAEVFQAALDLNGTMSGEHGVGLAKQPYIHLELKPAQVATMQAIKKALDPNNILNPGKMFPV”, the “soluble on expression in E. coli” value is “not soluble”.

Consider “MGSDKIHHHHHHMLDRIIGTASANNWLFFCLFNNKFSGDIDSQRLLNMFRSVIAALLACLSYSAHAVVILQYHHVSEDTPKVTSVIPAQFREQMSYLRENGFKVKPLTHVVEAIKQGRELADKTVAITFDDGYQNIADTAHPILKEFGYPYTIFISIDPIERKHKNVMSWATLKRLSDEGVTLANHSWGHEHLIRRLHGEDEQTWLTRITENLLATEAEIEAKTGQSVKMLAYPYGEYNTAIETLVQKLGFVGFGQQSGAAGGYSSLTALPRFPVAGAYADLTSLKAKLYSLNMPVLALTPRNTQLPLGQWRPEMQVTLDMADIVASQVMCFVQGQGAMKPSWESEDTFSIQAVTDLPPGRSRYNCTAPSKASGRYYWFSQAWVRPKNDGTWVKE”, for which the “soluble on expression in E. coli” value is on record as “not soluble”.

“MGSDKIHHHHHHMLEKKARIADEAEIVDEAIVSRRSVRAFLPDMIDDDTIRDILEVAARAPSGTNMQPWRVYVTKGETKQQISDAILNSGIRAEKADWDEYRYYPTQFFEPYLTRRRANGFGLYGALGIGRREVDKMRAQHDRNFVFFDAPVGMIFTIDRRLNQGSWIDYGMFLQNIMVAARGRGLHTCPQAAFAPYHRQIRPVLNIPDEEIVVCGMALGYEDTSKPENAFRTDRVPLEEWVTFSE”: the “soluble on expression in E. coli” value is reported as “not soluble”.

Take “MGSDKIHHHHHHMLELTDDLRIGHPVIDADHQRLIEIINEFLEHSNEVNPQILHETLKSLLAYGREHFAREEGIQRQCLYPYQQGHSNEHKSLLDQVREIARAYFVAKTKPLNATSVQDVNELLKAWLIGHVKKFDTSMRDWVAPSLDMDAPRIKLASPDLAALIISPNERSRARLADLLSELGASKVLQAEDSITGLGMAFGDPVPDFIFCDLETEPLDGGAFAGALRGSNKAYITRIPLLLLHDAEDAEAIQNAMAAGASGVYPKSFNPTNLGRLLNQLLLR”: the “soluble on expression in E. coli” value was “not soluble”.

As to “MGSDKIHHHHHHMLEMKATGKSKGQWMFYRNFDDTVDYLSDHTRILSYNPFCHKVEPLDRDEAYRWHFRVTDPQNNPFDVIFNIQQETEILVDLPDEVASMDPEEMSDEMIRQFTVGRKITWRPLAQDKTFTMPEKYLFEGQVTADMLIVPVQQEQTRVDFDLWVNVAFLLYPAFRIVPEKVVRTMVSTGMSLIMQTATNHMFQKISKEFGKIRKL”, the “soluble on expression in E. coli” value is listed as “not soluble”.

“MGSDKIHHHHHHMLEVIDVWKKYPPKTQALREVSFEAEEGSITAVFGENGSGKTTLLKVIASFLIPDRGKVLIDSVNIVEKPSFAVEKVSISTGYERSFYYRLSVEENLKFFGMLNDLLGKTLKRETERVMKELGLLECRKKRYMELSTGYKKRVDVARALMKKASIYIFDEPCSGVDLRTRLKIHEIMKRLKESGRIVIFASHDLEDLKIADRVIVLKKGEKVLEFSPKKEDLAAVLRGILEIQAFPGD”: the “soluble on expression in E. coli” value is listed as “not soluble”.

With “MGSDKIHHHHHHMLFLSGLLGVSAQRVALKNNLLYDATLTPNLALEIGVGPKMTVDLLGGVNPFKISDDHYWKHWLAQPELRYWFCEKFNGVCIGLHGHVGQMNIAGISVPPVGSIHPKSDFDDARYHRYQGWFYGGGISIGRQWILGNHWNLEASIGGGYIHFDYDKYQCVECGKKVGVDKKADYFGLTRATLSLIYLFK”, the “soluble on expression in E. coli” value was “not soluble”.

In the case of “MGSDKIHHHHHHMLGKTAGGLYWLFRYLERSENTARLIETGFRIALTRPDGSDDEWRSVLQTAAVRDLYEGLYGEVEQAKAIDFLLRDRANPSSILSSISEARQNARLTRTALTREVWEAINDAYMNLKELLAHPVSAKTLPGTLATIRQHSALVRGAMHGTMLRTDIFDFCRLGTFIERADNTARILDVKYYVLLPSMTQVGSDLDNVQWETILRAVASHRSYRWLMGGETTPKGIADFLVFDTRMPRSLRFTVKKMASNLEYLAENYGQRHACHDQMDVLLARLKHGTIDEVFDDGLHEFLTEFLLDIGALGAQIESDYRFLG”, the “soluble on expression in E. coli” value is recorded as “not soluble”.

Take “MGSDKIHHHHHHMLIHICCSVDNLYFLKKAKEAFAGEKIVGFFYNPNIHPYSEYLLRLEDVKRTCEMLGIELLEGDYELEKFLDKAKGKELLGEKSERCFECFDLRLEASALKAFELGEEKFTTTLLTSPKKDPNQLIAKGQHIAQRHNLEFVVFRNDNFEHFKSELDLNLQALARENELYRQNYCGCQFALKIQKESQNRSPFELYSPLKRQILPASIEERTQVFRELDAAKKDANKPFLAQKTIATYRLLNGGVWLSKNSNPLDCCILARSKSKAKVRINDLRWVFSQRLSALVGYSQRDETLFLTLEGLNTLMAKNYDNLKELNLNPLSYEEELSLRALVSGSESINPIIVLEERTEKTLFVEIKSIFQEEKVFYLL”: the “soluble on expression in E. coli” value is on record as “not soluble”.

Take “MGSDKIHHHHHHMLKHFGSKVRNLRVTRNITREDFCGDETELSVRQLARIESGQSIPNLTKAHYIAKQLNVKLDILTGGESLELPKRYKELKYLILRIPTYADAERLKLRECQFDHIFEEFYDNLPEDECLAIDSLQAKFEVYQTGDINFGVEVLCECFDKVKYKEKYTLNDLIIIDLFLTCAVVSKFNNRAFTKEVFQTICKTLISQNHKLTAEDLFWFNHVLLNCVFVGLCLNSEECLAEMLEVSRQTMVSTHDFHKMPLYFMYQWKYFITIDNDIKSAENAYQQSIMFSKMIDDKHLIKKLELEWQEDITGH”: the “soluble on expression in E. coli” value is recorded as “not soluble”.

On to “MGSDKIHHHHHHMLKKSNIQWTAKQIAKMMDKGTLGFDNSVQRGLCWKTDKKILLIDSMFQNYPIPAFYAARNEDKTYDMLDGKQRCHAIKEFIEGKFKLDGIEEVELEDGESIDVNGMSFEELPEELQDRVKDYSLTVYFFLDLSDDQVSEMFYRLNNGKALSAIELTRVKAKSFDAIRELGNHEIFKNALTLKQVNKYTNEDIVIKTYAMLYTENPSFETKKIRPLMQDVEFTEQQKEEIKKAYSKILDIWKAINTEDKEHKKIAKRILTRTHLLTIIPIVIKSDKTIEELASWLLKFYSGKRRASISEKYNSAAGSGSARSESIKIRLEELKKDYNEYFSNQDEEINKKIEEIFKEGDSIE”, for which the “soluble on expression in E. coli” value is on record as “not soluble”.
